# Measured values reported in the DeepSol protein solubility set.
# Test: soluble on expression in E. coli; label from the status in PepcDB or PDB records
row,Sequence,soluble on expression in E. coli
1,MGSDKIHHHHHHMILKTKLFGKVYQFTSVKEVLAKANEEKSGDKLAGVAANSAEERVAAKVVLSELSLNDLFNNPVVDYDEDEVTRIIIDQVNMRIFESIKHWTVAELREFILSSETTDFDIKRISRGLTSEMIAAVCKLMSNMDLIVGAKKINIEKTANTTIGRPGTFSNRLQPNHPTDNVDGIMASVMEGLSYGAGDALIGLNPVDDSTESVKRILNKFEEFRSEWEIPTQTCVLAHVTTQMEAMRQGAPTGLVFQSIAGSEKGNTAFGLNAEILAEAQDLALHSGQAAGPNVMYFETGQGSELSSEANFGADQVTMEARCYGLAKKFDPYIVNTVVGFIGPEYLYDSKQVIRAGLEDHFMGKLTGISMGCDVCYTNHMKADQNDMENLAMLLATAGCTYIMGIPHGDDVMLNYQTTGFHETATIRETLGLRPIKEFEEWMEKMGLMENGKLTSRAGDASVFIK,not soluble
2,MAMKDKLKNFFSMEDEEYEYEYIETERESHVEHEQKEKPAYNGNKPAGKQNVVSLQSVQKSSKVVLSEPRVYAEAQEIADHLKNRRADVVNLQRIQHDQAKRIVDFLSGTVYAIGGDIQRIGSDIFLCTPDNVDVSGTISELISEDEHQRWLEHHHHHH,not soluble
3,MGSDKIHHHHHHVIIESRIEKGKPVVGMETTVFVHGLPRKEAIELFRRAKEISREKGFQLAVIGILKGKIVAGMSEEELEAMMREGADKVGTREIPIVVAEGKNAATTVSATIFLSRRIGIEVVVTGGTGGVHPGRVDVSQDLTEMSSSRAVLVSSGIKSILDVEATFEMLETLEIPLVGFRTNEFPLFFSRKSGRRVPRIENVEEVLKIYESMKEMELEKTLMVLNPVPEEYEIPHDEIERLLEKIELEVEGKEVTPFLLKKLVEMTNGRTLKANLALLEENVKLAGEIAVKLKRS,soluble
4,MSRATYIIGALAGSAVVAYVCDKVISDDKLFGGTTPGTITNKEWGAATEERLQAWPRVAGPPVVMNPISRQNFIVKSRPE,not soluble
5,MEEMSMEKIVNDILKEEVYYEKLQNGLDVYFMPKRGFMKKYAILATNYGSNDLEFVPIGEDKKIRVNEGIAHFLEHKMFEQPDGGDAFDKFSKLGVNANAFTNFTMTAYLFSATENFYESLEHLIDYVQTPYFTDENVEKEKGIIAQEIKMYNDDPDWNVYFNCLKAMYVNYPARIDIAGTVDSIYKITKEELYKCYNTFYNPGNMALFVVGDLDVEKVIDVTKKS,not soluble
6,MGSDKIHHHHHHMSFKKVDLSRYQFDGAQASSIGDLTQLDAADKQRLLYAGIDVNQQNLAGSFMHMNHSGVHCTSRQEGLEILDIKQALDTYHGLPDYFWKLVDRNKDEYTRAADEHLHGGYFIRARAGAKIEAPVQSCLFIKGNGVGQNVHNVVVVEEGAEMHIITGCATAHDTRSVAHLGISEFYVHKGGKLTFTMIHNWGEEAAVRPRSAGYLEEDAVFLSNYVLLKPVTDLQMYPTITLGGRGSVARFNSVIVAPTGSYVDTGNRILLEAPDTRGEIIARTMTTGGTIINRGHIAGHAVPARGHLECKGLILGGGVIHAIPELEGTQDGVELSHEAAVGKIAQEEIEYLMARGLDEDEATSTIVRGFLNVDIMGLPEELEKAVEEQINQLDAGDAM,not soluble
7,GPGSMLCRVHLRADPHSSSLHNVVHATNAMAAVNQLLGPERSVFVATEVQPQGVGHSCHGIQLPEDAIIAENVRTSMLVPKVRLHILGDAERGIPPVQQVVIWGYETCGCILQTADDLLTHGVRVAVLVDGCASRTKEVHDTAVLQISRWDGLMVTTVPSAVMQLTRSDARFVKPIIQIMKKFAADWCTTQPRPELRDRGGSGDGEKATAASDARAVPSALATATAADAILAANSACCRTEH,not soluble
8,MGSSHHHHHHGKTIFVIVPTNEEQVAFLEALAKQDELNFDWQNPPTEPGQPVVILIPSDMVEWFLEMLKAKGIPFTVYVEEGGSENLYFQGGGGGGAASLGDFGQEYQAIMESAGKGFGMLYRDMTAPPASYQWECVEDLSLQYSVAYASLTEPYTVNVLTSMITVTRTESTPGVSYNLIGIACTYDGNCGDLKRGNLLTFSLRKDLIIIVTGSVLSNGITNFLPVSYYVVQLASSCSSANIANVTRPFSVGASSVWMQLWQ,not soluble
9,MKKYSILLLPFILASCAPVSESQFTEQRLSELEIKVAKLEERQEKIEEQLEEINKRLDYITKSIAKREIKSYKEPEEEKPPFEEVKSTEDEKAEYENALELYKMKQLNEARDAFVEFIKKYPNSKYTDNAYFWLGKTFYELGNTERAKQIFNVLIKKCKSGELPDCNKLPDTYFMLVKISLDEGNIEEANRYLSILEEKFPDAEATQRAKELIYKTP,not soluble
10,MSKKSQIIETATRLFAEHGFENTPVSLICEEAEVSKGAVFHHFKNKNDILREVFIHITTIIEETDKNDVHLATQEDPLEAAIHEIFDGMSVAKYRKMYQFNFSVMVHPTTRAIVADLIEDRYQQLQTSAEEIFRAVGYSNPVVITKMFIAEIDGIAMNYLLNNDFPLMDIKQEFIKKYCQ,not soluble
